In patent US20070207967A1 (CTT CANCER TARGETING TECHNOLOGIES, published 2007):
Ends that are not written are not given here.

B1: MMP-9 collagen binding domain (CBD), amino acids Gly204-Gly373 (other, UniProt P14780 223-392, looked up)
chain: GNADGAACHFPFIFEGRSYSACTTDGRSDGLPWCSTTANYDTDDRFGFCPSERLYTQDGNADGKPCQFPFIFQGQSYSACTTDGRSDGYRWCATTANYDRDKLFGFCPTRADSTVMGGNSAGELCVFPFTFLGKEYSTCTSEGRGDGRLWCATTSNFDSDKKWGFCPDQG
modifications: biotinylated with sulfo-NHS-LC-biotin in some experiments
notes: range 223-392; Vector-derived residues (start Met from the NdeI site) not described further; also called recombinant CBD; biotinylated CBD
B2: PPC peptide-bearing phage (CGYGRFSPPC displayed on phage) (peptide)
peptide: CGYGRFSPPC
modifications: cysteine pairing not given here; also: displayed on phage
notes: also called PPC phage; phage carrying PPC
B3: pro-MMP-9 (purified human pro-matrix metalloproteinase-9) (enzyme, UniProt P14780 20-707, looked up)
chain: APRQRQSTLVLFPGDLRTNLTDRQLAEEYLYRYGYTRVAEMRGESKSLGPALLLLQKQLSLPETGELDSATLKAMRTPRCGVPDLGRFQTFEGDLKWHHHNITYWIQNYSEDLPRAVIDDAFARAFALWSAVTPLTFTRVYSRDADIVIQFGVAEHGDGYPFDGKDGLLAHAFPPGPGIQGDAHFDDDELWSLGKGVVVPTRFGNADGAACHFPFIFEGRSYSACTTDGRSDGLPWCSTTANYDTDDRFGFCPSERLYTQDGNADGKPCQFPFIFQGQSYSACTTDGRSDGYRWCATTANYDRDKLFGFCPTRADSTVMGGNSAGELCVFPFTFLGKEYSTCTSEGRGDGRLWCATTSNFDSDKKWGFCPDQGYSLFLVAAHEFGHALGLDHSSVPEALMYPMYRFTEGPPLHKDDVNGIRHLYGPRPEPEPRPPTTTTPQPTAPPTVCPTGPPTVHPSERPTAGPTGPPSAGPTGPPTAGPSTATTVPLSPVDDACNVNIFDAIAEIGNQLYLFKDGKYWRFSEGRGSRPQGPFLIADKWPALPRKLDSVFEERLSKKLFFFSGRQVWVYTGASVLGPRRLDKLGLGADVAQVTGALRSGRGKMLLFSGRRLWRFDVKAQMVDPRSASEVDRMFPGVPLDTHDVFQYREKAYFCQDRFYWRVSSRSELNQVDQVGYVTYDILQCPED
notes: Purified proenzyme in plate assays; endogenous pro-MMP-9 of HT1080 and THP-1 cells in the co-immunoprecipitations
B4: integrin β5 I-EGF2+3 fragment (Glu476-Asn563) with N-terminal His6-tag (receptor, UniProt P18084 499-586, looked up)
chain: ECQDGENQSVYQNLCREAEGKPLCSGRGDCSCNQCSCFESEFGKIYGPFCECDNFSCARNKGVLCSGHGECHCGECKCHAGYIGDNCN
modifications: biotinylated where used as the labelled ligand
notes: range 476-563; also called I-EGF2+3 fragment of β5 integrin; biotinylated β5 I-EGF2+3; not shown: N-terminal His6-tag from the pHAT2 vector
B5: CRV phage (CRVYGPYLLC displayed on phage) (peptide)
peptide: CRVYGPYLLC
modifications: cysteine pairing not given here; also: displayed on phage as coat protein fusion
notes: also called phage carrying CRV
B6: fibronectin-derived peptide TTPNSLLVSWQPPRARIT (peptide)
peptide: TTPNSLLVSWQPPRARIT
notes: Synthesized on a cellulose membrane (pepspot); also called PPC-like fibronectin peptide

Tests used:
[1] = biological target: T1, urea-denaturated human plasma vitronectin (human, UniProt P04004 20-478); assay: solid phase binding assay (discussion)
T1 construct: also called VN
T1 sequence (P04004 20-478 limits assumed): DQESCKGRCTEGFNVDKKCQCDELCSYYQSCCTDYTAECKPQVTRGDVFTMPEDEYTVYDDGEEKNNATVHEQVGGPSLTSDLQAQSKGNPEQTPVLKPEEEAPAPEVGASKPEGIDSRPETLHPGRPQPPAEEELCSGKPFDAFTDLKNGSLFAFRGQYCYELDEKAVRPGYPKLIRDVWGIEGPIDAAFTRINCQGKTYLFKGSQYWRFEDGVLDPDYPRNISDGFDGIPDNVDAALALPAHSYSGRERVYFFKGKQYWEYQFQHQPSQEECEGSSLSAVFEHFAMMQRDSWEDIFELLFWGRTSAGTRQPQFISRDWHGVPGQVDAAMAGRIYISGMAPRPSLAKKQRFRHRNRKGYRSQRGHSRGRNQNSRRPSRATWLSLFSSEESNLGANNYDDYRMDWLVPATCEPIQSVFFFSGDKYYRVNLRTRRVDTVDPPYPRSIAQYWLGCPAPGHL

[2] = biological target: B3; assay: phage display selection; table of pro-MMP-9 binding peptide sequences, group I CBD-binding
[3] = biological target: B3; assay: phage display selection; table of pro-MMP-9 binding peptide sequences, group I CBD-binding; (6) is the number of isolated phage
[4] = biological target: T2, αVβ3 integrin of HT1080 cells (human, UniProt P06756 31-1048; P05106 27-788); assay: immunoprecipitation with anti-integrin antisera, western blot for MMP-9
T2 construct: whole, on cells
T2 sequence (P06756 31-1048, chain 1 of 2): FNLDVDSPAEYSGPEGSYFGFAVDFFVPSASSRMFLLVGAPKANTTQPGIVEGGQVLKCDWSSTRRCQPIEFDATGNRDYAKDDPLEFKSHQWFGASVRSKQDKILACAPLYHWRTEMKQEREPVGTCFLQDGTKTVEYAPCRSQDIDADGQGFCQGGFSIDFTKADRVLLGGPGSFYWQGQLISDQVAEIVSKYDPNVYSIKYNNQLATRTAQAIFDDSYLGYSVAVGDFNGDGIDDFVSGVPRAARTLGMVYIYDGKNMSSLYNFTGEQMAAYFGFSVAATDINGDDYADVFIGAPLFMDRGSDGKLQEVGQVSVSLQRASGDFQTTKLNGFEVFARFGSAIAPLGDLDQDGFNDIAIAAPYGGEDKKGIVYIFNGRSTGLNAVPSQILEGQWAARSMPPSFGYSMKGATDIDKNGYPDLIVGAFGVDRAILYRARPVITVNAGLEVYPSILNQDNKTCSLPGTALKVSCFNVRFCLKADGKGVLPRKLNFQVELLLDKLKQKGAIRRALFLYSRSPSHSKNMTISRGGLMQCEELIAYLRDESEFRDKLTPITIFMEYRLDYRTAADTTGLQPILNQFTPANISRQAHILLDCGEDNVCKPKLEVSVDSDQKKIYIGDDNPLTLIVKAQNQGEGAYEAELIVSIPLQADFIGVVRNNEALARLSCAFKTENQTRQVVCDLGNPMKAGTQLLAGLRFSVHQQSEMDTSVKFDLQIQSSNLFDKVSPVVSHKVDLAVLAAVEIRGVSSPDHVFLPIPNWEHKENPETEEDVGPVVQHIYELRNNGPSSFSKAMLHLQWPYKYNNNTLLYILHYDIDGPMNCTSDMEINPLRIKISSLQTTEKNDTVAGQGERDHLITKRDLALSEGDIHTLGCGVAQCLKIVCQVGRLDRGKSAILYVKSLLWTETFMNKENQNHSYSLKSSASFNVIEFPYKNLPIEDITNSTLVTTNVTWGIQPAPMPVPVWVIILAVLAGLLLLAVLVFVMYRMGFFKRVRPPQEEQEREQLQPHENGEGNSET
T2 sequence (P05106 27-788, chain 2 of 2): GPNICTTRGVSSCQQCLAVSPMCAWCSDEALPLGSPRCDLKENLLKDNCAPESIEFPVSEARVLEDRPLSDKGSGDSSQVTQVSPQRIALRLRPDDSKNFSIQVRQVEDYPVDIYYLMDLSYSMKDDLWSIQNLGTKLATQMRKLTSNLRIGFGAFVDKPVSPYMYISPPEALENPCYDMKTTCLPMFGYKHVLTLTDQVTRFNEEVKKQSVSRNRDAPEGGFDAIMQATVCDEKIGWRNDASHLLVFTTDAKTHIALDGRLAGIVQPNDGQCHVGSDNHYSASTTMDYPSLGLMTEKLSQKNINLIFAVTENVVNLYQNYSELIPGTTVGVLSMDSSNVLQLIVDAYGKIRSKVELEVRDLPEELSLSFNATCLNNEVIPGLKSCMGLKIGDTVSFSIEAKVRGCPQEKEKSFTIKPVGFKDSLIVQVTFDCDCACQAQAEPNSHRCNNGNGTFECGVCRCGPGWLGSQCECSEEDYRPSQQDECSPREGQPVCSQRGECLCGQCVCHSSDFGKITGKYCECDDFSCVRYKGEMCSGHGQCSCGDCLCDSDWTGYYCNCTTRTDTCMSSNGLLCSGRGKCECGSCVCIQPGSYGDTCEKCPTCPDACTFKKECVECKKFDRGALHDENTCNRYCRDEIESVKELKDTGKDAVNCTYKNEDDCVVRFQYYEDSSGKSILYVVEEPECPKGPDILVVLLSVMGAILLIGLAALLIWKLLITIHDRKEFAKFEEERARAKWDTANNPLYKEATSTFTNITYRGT

platelet integrin αIIbβ3 = platelet integrin αIIbβ3 (UniProt P08514 32-1039; P05106 27-788); assay: pro-MMP-9 on immobilized integrin, read out by biotinylated gelatin
Sequence of platelet integrin αIIbβ3 (P08514 32-1039, chain 1 of 2): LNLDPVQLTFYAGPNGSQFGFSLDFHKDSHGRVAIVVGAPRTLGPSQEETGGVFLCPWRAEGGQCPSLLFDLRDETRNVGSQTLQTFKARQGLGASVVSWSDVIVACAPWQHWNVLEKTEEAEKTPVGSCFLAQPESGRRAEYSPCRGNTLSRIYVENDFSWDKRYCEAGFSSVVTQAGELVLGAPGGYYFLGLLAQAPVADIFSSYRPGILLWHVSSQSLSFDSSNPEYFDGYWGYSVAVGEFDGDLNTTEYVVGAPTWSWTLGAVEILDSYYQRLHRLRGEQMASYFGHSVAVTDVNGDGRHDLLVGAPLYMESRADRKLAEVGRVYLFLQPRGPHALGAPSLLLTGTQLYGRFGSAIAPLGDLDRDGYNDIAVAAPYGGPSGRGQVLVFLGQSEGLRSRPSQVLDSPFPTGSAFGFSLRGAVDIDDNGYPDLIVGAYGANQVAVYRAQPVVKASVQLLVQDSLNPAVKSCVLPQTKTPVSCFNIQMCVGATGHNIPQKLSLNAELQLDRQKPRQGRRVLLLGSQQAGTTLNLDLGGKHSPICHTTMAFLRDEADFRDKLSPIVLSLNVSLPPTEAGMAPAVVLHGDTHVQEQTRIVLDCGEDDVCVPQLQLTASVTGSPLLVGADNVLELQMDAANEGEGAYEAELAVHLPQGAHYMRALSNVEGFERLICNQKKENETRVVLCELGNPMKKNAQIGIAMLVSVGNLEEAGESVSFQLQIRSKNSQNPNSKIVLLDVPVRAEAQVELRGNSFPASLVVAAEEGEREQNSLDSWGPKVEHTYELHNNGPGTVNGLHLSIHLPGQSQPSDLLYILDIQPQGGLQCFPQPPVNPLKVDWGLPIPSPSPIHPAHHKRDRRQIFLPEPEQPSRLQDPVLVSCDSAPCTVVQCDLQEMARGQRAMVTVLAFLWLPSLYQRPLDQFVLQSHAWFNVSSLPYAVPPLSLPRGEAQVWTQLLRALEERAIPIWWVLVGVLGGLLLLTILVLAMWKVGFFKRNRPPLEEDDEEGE
Sequence of platelet integrin αIIbβ3 (P05106 27-788, chain 2 of 2): as the sequence (P05106 27-788, chain 2 of 2) above

[5] = biological target: T1, urea-denaturated human plasma …; assay: solid phase assay, streptavidin-peroxidase
[6] = biological target: the molecule itself; assay: solid phase assay, streptavidin-peroxidase
[7] = biological target: B1; assay: solid phase assay, streptavidin-peroxidase
pro-MMP-3 = pro-MMP-3 (UniProt P08254 18-477, limits assumed); assay: phage binding assay
Sequence of pro-MMP-3 (P08254 18-477 limits assumed): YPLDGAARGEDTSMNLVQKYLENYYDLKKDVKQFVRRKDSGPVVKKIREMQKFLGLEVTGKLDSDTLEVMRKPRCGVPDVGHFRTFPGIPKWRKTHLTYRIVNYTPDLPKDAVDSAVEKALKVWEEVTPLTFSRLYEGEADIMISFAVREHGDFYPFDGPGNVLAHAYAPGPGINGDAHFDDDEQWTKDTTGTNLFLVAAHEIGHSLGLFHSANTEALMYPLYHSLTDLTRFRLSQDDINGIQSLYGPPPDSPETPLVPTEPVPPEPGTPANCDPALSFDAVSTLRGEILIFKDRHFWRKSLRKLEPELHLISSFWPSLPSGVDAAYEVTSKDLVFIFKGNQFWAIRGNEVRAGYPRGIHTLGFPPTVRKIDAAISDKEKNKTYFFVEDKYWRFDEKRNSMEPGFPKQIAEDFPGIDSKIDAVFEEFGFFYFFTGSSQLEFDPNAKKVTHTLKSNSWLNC

[8] = biological target: B1; assay: phage binding assay
pro-MMP-2 = biological target: T3, pro-MMP-2 (UniProt P08253 30-660, limits assumed); assay: phage binding assay
T3 sequence (looked up): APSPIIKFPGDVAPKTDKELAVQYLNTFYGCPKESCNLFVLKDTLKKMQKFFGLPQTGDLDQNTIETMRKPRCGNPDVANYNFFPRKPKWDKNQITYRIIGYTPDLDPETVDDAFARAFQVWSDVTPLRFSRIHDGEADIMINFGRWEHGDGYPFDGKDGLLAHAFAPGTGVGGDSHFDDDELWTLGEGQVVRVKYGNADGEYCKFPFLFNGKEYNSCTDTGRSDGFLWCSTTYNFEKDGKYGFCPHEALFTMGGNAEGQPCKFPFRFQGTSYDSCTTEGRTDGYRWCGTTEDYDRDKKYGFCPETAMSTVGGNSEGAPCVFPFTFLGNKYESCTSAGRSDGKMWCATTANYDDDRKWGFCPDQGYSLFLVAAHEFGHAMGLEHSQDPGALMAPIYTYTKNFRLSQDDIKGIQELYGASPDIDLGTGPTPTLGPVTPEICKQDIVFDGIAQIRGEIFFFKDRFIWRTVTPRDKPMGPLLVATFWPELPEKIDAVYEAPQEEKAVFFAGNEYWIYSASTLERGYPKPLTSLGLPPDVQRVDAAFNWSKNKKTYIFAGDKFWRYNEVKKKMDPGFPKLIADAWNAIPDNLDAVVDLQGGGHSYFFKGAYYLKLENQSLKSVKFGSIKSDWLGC

[9] = biological target: T4, pro-MMP-9-ΔHC (Ala1-Gly424), pro-MMP-9 lacking the hinge region and the C domain (UniProt P14780 20-444); assay: phage binding assay (not shown)
T4 construct: range 20-444

[10] = biological target: B1; assay: pepspot membrane assay, chemiluminescence

## B1
[1]
  binding result: binds

## CGFGRWQPPC (cysteine pairing not given here; also: displayed on phage, selected by biopanning) [phage peptide CGFGRWQPPC]
[2]
  binding result: binds

## B2
[3]
  binding result: binds

## B3
[4]
  binding result: no binding
Platelet integrin αIIbβ3
  binding result: no binding

## B4
[5]
  binding result: no binding (tested: biotinylated fragment 2.5 µg/ml)
[6]
  binding result: no binding (tested: biotinylated fragment 2.5 µg/ml)
[7]
  binding result: no binding (tested: biotinylated fragment 2.5 µg/ml)

## CGWGRYSPPC (cysteine pairing not given here; also: displayed on phage, selected by biopanning) [phage peptide CGWGRYSPPC]
[2]
  binding result: binds

## B5
pro-MMP-3
  binding result: no binding (tested: 20 ng/well; 10^8 transducing units/well)
[8]
  binding result: no binding (tested: 20 ng/well; 10^8 transducing units/well)
pro-MMP-2
  binding result: no binding (tested: 20 ng/well; 10^8 transducing units/well)
[9]
  binding result: no binding

## B6
[10]
  binding result: binds
